Reference: patent publication US20240301030A1

Legend:
[1] = target: full-length SORLA with C-terminal GFP-tag (human) (UniProt Q92673); assay: cell-based or functional assay
[2] = target: SORLA with C-terminal fusion of the C-terminal fragment of venus fluorescent protein (human) (UniProt Q92673); assay: cell-based or functional assay

Row | Mander's coefficient, co-localization between the PLA signal (representing SORLA dimers) and SORLA-GFP (representing both monomers and dimers) [1] | Mander's coefficient, overlap between the green venus signal specific for SORLA dimers and the total SORLA pool [2] | Substance
1 | 0.35 | – | full-length SORLA with C-terminal FLAG-tag, Q92673 82-2214
2 | – | 0.37 | SORLA with C-terminal fusion of the N-terminal fragment of venus fluorescent protein, Q92673 82-2214
